The text below walks through data of patent US20060121580A1 (CRUCELL HOLLAND B V, published 2006).

Numbering of substitutions follows the chain as printed.

Sequences and labels used below:
B1: human monoclonal anti-SARS-CoV antibody 03-013 (antibody, V domains shown)
VH: EVQLVESGGGLVQPGGSLRLSCAASGFTFSDHYMDWVRQAPGKGLEWVGRTRNKANSYTTEYAASVKGRFTISRDDSKNSLYLQMNSLKTEDTAVYYCAKGLTPLYFDYWGQGTLVTVSS
VL: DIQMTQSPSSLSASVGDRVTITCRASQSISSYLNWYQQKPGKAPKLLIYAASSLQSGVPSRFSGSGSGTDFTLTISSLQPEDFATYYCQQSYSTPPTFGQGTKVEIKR
B2: human monoclonal anti-SARS-CoV antibody 03-014 (antibody, V domains shown)
VH: B1 VH with K100R, L102I, T103S, L105F
VL: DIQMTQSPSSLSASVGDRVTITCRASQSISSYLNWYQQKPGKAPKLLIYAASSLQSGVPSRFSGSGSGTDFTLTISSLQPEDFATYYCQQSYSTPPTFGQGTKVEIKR
B3: human monoclonal anti-SARS-CoV antibody 03-001 (antibody, V domains shown)
VH: EVQLVESGGGLVKPGGSLRLSCAASGFTFSGYSMNWVRQAPGKGLEWVSSISGGSTYYADSRKGRFTISRDNSKNTLYLQMNNLRAEDTAVYYCARHRFRHVFDYWGQGTLVTVSS
VL: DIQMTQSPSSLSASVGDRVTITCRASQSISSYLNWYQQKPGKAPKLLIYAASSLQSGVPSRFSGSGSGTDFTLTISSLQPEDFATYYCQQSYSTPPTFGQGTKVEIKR
B4: human monoclonal anti-SARS-CoV antibody 03-006 (antibody, V domains shown)
VH: EVQLVESGGGLVQPGGSLRLSCAASGFTFSGYPMHWVRQAPGKGLEWVAVISYDGSNKYYADSVKGRFTISRDNSKNTLYLQMNSLRAEDTAVYYCAKDGSPRTPSFDYWGQGTLVTVSS
VL: DIQMTQSPHSLSASVGDRVTITCRASQGISNYLAWYQQKPGKVPKLLIYAASTLQSGVPSRFSGSGSGTDFTLTISSLQPEDVGVYYCQQRFRTPVTFGQGTKLEIKR
B5: human monoclonal anti-SARS-CoV antibody 03-009 (antibody, V domains shown)
VH: EVQLVESGGGVVQPGRSLRLSCAASGFTFSDYPMNWVRQAPGKGLEWVSSISGSGGSTYYADSVKGRFTISRDNSKNTLYLQMNSLRAEDTAVYYCAKGLFMVTTYAFDYWGQGTLVTVSS
VL: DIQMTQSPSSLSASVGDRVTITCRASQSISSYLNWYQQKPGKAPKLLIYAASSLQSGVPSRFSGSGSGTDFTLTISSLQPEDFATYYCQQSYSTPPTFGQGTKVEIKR
B6: human monoclonal anti-SARS-CoV antibody 03-002 (antibody, V domains shown)
VH: EVQLVESGGGLVKPGGSLRLSCAASGFTFSGYSMSWVRQAPGKGLEWVGRTRNKANSYTTEYAASVKGRFTISRDDSKNSLYLQMNSLKTEDTAVYYCARYYSRSLKAFDYWGQGTLVTVSS
VL: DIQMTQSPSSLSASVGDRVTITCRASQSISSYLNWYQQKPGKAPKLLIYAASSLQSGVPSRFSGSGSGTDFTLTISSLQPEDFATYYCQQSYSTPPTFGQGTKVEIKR
B7: human monoclonal anti-SARS-CoV antibody 03-015 (antibody, V domains shown)
VH: EVQLVESGGGVVRPGGSLRLSCAASGFTFDDYGMSWVRQAPGKGLEWVSGINWNGGSTGYADSVKGRFTISRDNAKNSLYLQMNSLRAEDTAVYYCARGLSLRPWGQGTLVTVSS
VL: SSELTQDPAESVALGQTVRITCQGDSLRSYYASWYQQKPGQAPVLVIYGKNNRPSGIPDRFSGSSSGNTASLTITGAQAEDEADYYCNSRDSSGNHVVFGGGTKLTVLG

For one assay, the target named is S318-510 fragment (amino acids 318-510 of the S protein of SARS-CoV Frankfurt 1), myc-His tagged (SARS-CoV strain Frankfurt 1, UniProt P59594 318-510). Nature of the assay: IgG ELISA on S318-510 fragment. In general terms: ELISA stands for enzyme-linked immunosorbent assay.
With B1, the binding result is “binds”.

Take B2: the binding result is “binds”.

B3: the binding result is on record as “no binding”.

For B4, the binding result is listed as “binds”.

For B5, the binding result is listed as “no binding”.

Regarding B6, the binding result is on record as “no binding”.

In the case of B7, the binding result is on record as “no binding”.

For another assay, the target named is full length S protein of SARS-CoV expressed on HEK293T cells (SARS-CoV strain Frankfurt 1, UniProt P59594 14-1255). The experiment in a line: flow cytometry, 10 µg/ml IgG on transfected HEK293T cells. (In general: In flow cytometry, cells or beads pass a laser one at a time.)
For B1, the binding result is “binds”.

As for B4, the binding result is “binds”.

B7: the binding result is reported as “binds”.

In a further assay the target is S565 fragment (amino acids 1-565 of the S protein of SARS-CoV), myc-His tagged (SARS-CoV strain Frankfurt 1, UniProt P59594 14-565). The experiment in a line: IgG ELISA on captured S565.
With B1, the binding result is “binds”.

B2: the binding result is recorded as “binds”.

With B4, the binding result is on record as “binds”.

As for B7, the binding result was “no binding”.
